Laboratory results: article PMC12724329

Biological target: gcKPNB3-FLAG (grass carp importin beta 3, FLAG-tagged) (grass carp)
Test: co-IP; co-IP of IRF3 with gcKPNB3 from GCRV-infected CIK cells with gcDDX56 overexpressed (+, 4 µg; ++, 8 µg plasmid) or knocked down by siRNA; bands quantified with ImageJ

## gcIRF3-HA (grass carp IRF3, HA-tagged) (natural protein)
  fold change of the interaction on gcDDX56 knockdown against the siRNA control: 3.23 fold
